Data: patent US12319925B2, “Methods and compositions for genomic integration” (Myeloid Therapeutics, Inc., priority 2021, dated 2025)

Test system: THP-1 cells
Assay: Integration and expression of HER2 binder-T2A-GFP cargo after LINE-1 plasmid electroporation
Type: cell-based
Details: 3.7 kb cargo, day 6 post transfection, FIG. 18B
Description: Next, THP-1 cells (a myeloid, monocytic cell line) were electroporated with a plasmid having LINE-1 sequences and a 3.7 kb cargo encoding a chimeric HER-2 binding receptor, and a split GFP (LINE-1 plasmid Her2-Cd3z-T2A-GFPintron) (FIG. 18A). The cargo is a chimeric receptor that comprises a HER2 binding extracellular domain, a CD3z transmembrane domain, and split GFP reporter. […] Moreover, unlike CRISPR dependent technologies such as Prime editing, retrotransposition can result in integration of large genetic cargo, and, these can be delivered as a single nucleic acid construct.

B1: LINE-1 plasmid Her2-Cd3z-T2A-GFPintron: LINE-1 plasmid with cargo encoding chimeric HER-2 binding receptor and split GFP (SEQ ID NO: 41) (nucleic acid)
DNA: CGGCCGCGGGGGGAGGAGCCAAGATGGCCGAATAGGAACAGCTCCGGTCTACAGCTCCCAGCGTGAGCGACGCAGAAGACGGTGATTTCTGCATTTCCATCTGAGGTACCGGGTTCATCTCACTAGGGAGTGCCAGACAGTGGGCGCAGGCCAGTGTGTGTGCGCACCGTGCGCGAGCCGAAGCAGGGCGAGGCATTGCCTCACCTGGGAAGCGCAAGGGGTCAGGGAGTTCCCTTTCCGAGTCAAAGAAAGGGGTGACGGACGCACCTGGAAAATCGGGTCACTCCCACCCGAATATTGCGCTTTTCAGACCGGCTTAAGAAACGGCGCACCACGAGACTATATCCCACACCTGGCTCGGAGGGTCCTACGCCCACGGAATCTCGCTGATTGCTAGCACAGCAGTCTGAGATCAAACTGCAAGGCGGCAACGAGGCTGGGGGAGGGGCGCCCGCCATTGCCCAGGCTTGCTTAGGTAAACAAAGCAGCAGGGAAGCTCGAACTGGGTGGAGCCCACCACAGCTCAAGGAGGCCTGCCTGCCTCTGTAGGCTCCACCTCTGGGGGCAGGGCACAGACAAACAAAAAGACAGCAGTAACCTCTGCAGACTTAAGTGTCCCTGTCTGACAGCTTTGAAGAGAGCAGTGGTTCTCCCAGCACGCAGCTGGAGATCTGAGAACGGGCAGACTGCCTCCTCAAGTGGGTCCCTGACCCCTGACCCCCGAGCAGCCTAACTGGGAGGCACCCCCCAGCAGGGGCACACTGACACCTCACACGGCAGGGTATTCCAACAGACCTGCAGCTGAGGGTCCTGTCTGTTAGAAGGAAAACTAACAACCAGAAAGGACATCTACACCGAAAACCCATCTGTACATCACCATCATCAAAGACCAAAAGTAGATAAAACCACAAAGATGGGGAAAAAACAGAACAGAAAAACTGGAAACTCTAAAACGCAGAGCGCCTCTCCTCCTCCAAAGGAACGCAGTTCCTCACCAGCAACAGAACAAAGCTGGATGGAGAATGATTTTGATGAGCTGAGAGAAGAAGGCTTCAGACGATCAAATTACTCTGAGCTACGGGAGGACATTCAAACCAAAGGCAAAGAAGTTGAAAACTTTGAAAAAAATTTAGAAGAATGTATAACTAGAATAACCAATACAGAGAAGTGCTTAAAGGAGCTGATGGAGCTGAAAACCAAGGCTCGAGAACTACGTGAAGAATGCAGAAGCCTCAGGAGCCGATGCGATCAACTGGAAGAAAGGGTATCAGCAATGGAAGATGAAATGAATGAAATGAAGCGAGAAGGGAAGTTTAGAGAAAAAAGAATAAAAAGAAATGAGCAAAGCCTCCAAGAAATATGGGACTATGTGAAAAGACCAAATCTACGTCTGATTGGTGTACCTGAAAG
  genomic integration and expression of cargo: successfully integrated into the genome and showed prolonged expression
